Source: the nanobody polyreactivity screen of Harvey et al. (2022)

Experiment: yeast display, Sf9 membrane polyspecificity reagent, FACS + sequencing; frameworks hold sequencing errors
Outline: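 Sorting gates, low and high (top ~1%), were placed on anti-HA fluorescence to track expression and on streptavidin fluorescence to track reagent binding. A clone's polyreactivity label is taken from the gate it came out of. The reagent was 10% biotinylated, detergent-solubilized Sf9 membrane, applied for 1 hour at 4 °C to galactose-induced yeast display cells.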

Sequence | polyreactivity (PSR sort gate)
QVQLVESGGGLVQAGGSLRLSCAASGTFVTYMGWYRQAPGKERELVAAIRNGGSTNYADSVKGRFTISRDNAKNTVYLQMNSLKPEDTAVYYCAADRAGSIMNYWGQGTQVTVSS | low polyreactivity
QVQRVESGGGLVQAGGRLRLSSAASGSIFGRYGMGWYRQAPGKDRELVAAITSGTRRNYADSVKGRFTISRDNAKNTVYLQMNSLKPEDTAVYYCNAVRLRGNYEYGYWGLGTQVTVSS | low polyreactivity
QVQLVESCGGLVQAGGSLRLSCDASVSIFYRNAMGWYRQAPGKERELVAAIRSGGSTNYADSVKGRFTISRDNAKNTVYLQMNSLKPEDTAVYYCAAGYFWRQYKMGYWGQGTQVTVSS | high polyreactivity
QVQLVESGGGLVQAGGSLRLSCAASGSTFSANAMGWYRQAPGKERELVAAITYRGGNTYYADSVKGRFTISRDNAKNTVYLQMNSLKPEDTAVYYCNRDLRVRYRRMKYGYWGQGTQVTVSS | low polyreactivity
QVQLVESGGGLVQAGGSLRLSCAASGTFYTYAMGWYRQAPGKERELVAAINGGGRTYYADSVKGRFTISRDNAKNTVYLQMNSLKPEDTAVYYCAARPRWSPSKYDYWGQGTQVTVSS | high polyreactivity
QVQLVESGGGLVQAGGSLRLSCAASGFTFWANAMGWYRQAPGKERELVAAISWSGGSTTYADSVKGRFTISRDNAKNTVYLQMNSLKPEETAVYYCATDYGHYVTYRLSDYWGQGTQVTVSS | low polyreactivity
QVQLVESGGGLFQAGGSLRLSCAASGFIFFPYTMGWYRQAPGKERELVAAITNGGSTSYADSVKGRFTISRDNAKNTVYLQMNSLKPEDTAVYYCAADLGRNLLHTYYYWGQGTQVTVSS | low polyreactivity
QVQLVESGGGLVQAGGSLRLSCAASGRTFYPYDMGWYRQAPGKERELDAAISRSGGSTYYADSVKGRFTISRDNAKNSVYLQMNSLKPEDTAVYYCAAVYYSYSFVDHYDYWGQGTQVTVSS | low polyreactivity
QVQLVESGGGLVQAGGSLRLSCAASGFTFAPNAMAWYRQAPGKERELVAAITWSGGSTYYADSVKGRFTISRDNAKNTVYLQMNSLKPEDTAVYYCNAVSRSTVTGQHDYWGQGTQVTVSS | high polyreactivity
QVQRVESGGGLVQAGGRLRVSCAASGRTFYIYAMGWYRQAPGKERELVADITSGGSTYYADSVKGRFTISRDNAKNTVYLQMNCLKPEDTAVYYCNAGPHWFYRYGRYDYWGQGTQVTVSS | low polyreactivity
QVQLVESGGGLVQAGGSLRLICAASGSIFSGYAMGWYRQAPGKERELVAAITTSGGSTYYADSVKGRFTISRENAKNTVYLPMNSLNPEDTSVYYCAAGWLYSRYARVYYWGQGTQVTLSS | high polyreactivity
QVQLVESGGGLVQAGGSLRLSCAASGSNFYGYTMGWYRQAPGKERELVAAISWSGGSTYYADSVKGRFTISRDNAKNTVYLQMNSLKPEDTAVYYCAARWGYSRRGYRGYDYWGQGTQVTVSS | high polyreactivity
QVQLVESGGGLVQAGGSLRLSCAASGSTLARYTMGWYRQAPGKERELVATIDFGGVNTYYADSVKGRFTISRDTAKNTVYLQMNSLKPEDTAVYYCAAYNRLKRNVLYDYWGQGTQVTVSS | low polyreactivity
QVHLVESGGGLVQAGGSLRLSCAASGSTFDHYAMAWYRQAPGKERELVASITLSGGSTYYADSVKGRFTISRDNAKNTVYLQMNSLKPEDTAVYYCAAVVVYPYRLGYDYWGQGTQVTVSS | low polyreactivity
QVQLVESGGGLVQAGGSLRLSCAASGLTLIRYAMGWYRQAPGKERELVAAISWSGGSTYYADSVKGRFTISRDNAKNTVYLQMNSLKPEDTAVYYCNTVYRYPDEYDYWGQGTQVTVSS | high polyreactivity
QDQLVESGGGLVQAGGSLRLSCAASGGIFYQYAMGWYRQAPGKERELVATITSGGRTSYADSVKGRFTISRDNAKNTFYLQMNSLNPEDTAVYYCAATTGWYGARYGYWGQGTQVTVSS | high polyreactivity
QVQLVESGGGLVQAGGSLRLSCAASGSTFSRYAMGWYRQAPGKERELVAAISYSGDSTYYADSVKGRFTISRDYAKNTVYLQMNSLKPEDTAVYYCNVYSHYRGYYWGQGTQVTVSS | high polyreactivity
QVQLVESGVVLDQAGGILRLSCAASGFIFARYDMGWYRQAPGKERELVATISYTGGRTYYADSVKGRFTISRDNAKNTVYLQMNSLKPEDTAVYYCAAVVQSSEPVEYDYWGQGTQVTVSS | high polyreactivity
QVHLVESGGGLVQAGGSLRLSCAASGSTFATNAMGWYRQAPGIERELVAAITDGGSTNYADSVKGRFTISRDNAKNTVYLQMNSLKPEDTAVYYCAADGFKTVLPEYDYWGQGTQVTVSS | low polyreactivity
QVQLVESGGGLVQAGGSLRLSCAASGRIFGYYAMGWYRQAPGKERELVAASTSSDASTYYADSVKGRFTISRDNAKNTDYLQMNSLKPEDTAVYYCNADYPTWSYYLSGYYGYWGQGTQVTVSS | low polyreactivity
QVQLVESGGGLVQAGGSLRLSCAASGYTFSRNAMGWYRQAPGKERELVAAITGSGGSTYYADSVKGRFTISRDNAKNTVYLQMNSLKPEDTAVYYCATEVKRGYVGFDYWGQGTQVTVSS | low polyreactivity
QVQLVESGGGLVQAGGSLRLSCAASGIIFWHYAMGMYRQAPGKERELVADISRRGGSTYYADSVKGRFTISRDNAKNTVYLQINSLKPEDNAVYYCAARYHPGGYDSWGQGTQVTVSS | low polyreactivity

Sequence | polyreactivity (PSR sort gate)
QVQLVESGGGLVQAGGSLRLSCAASGSTFGNAMGWYRQAPGKERELVAAISGSGSDTYYADSVKGRFTISRDNAKNTVYLQMNSLKPEDTAVYYCNTGWDPYGYDYWGQGTQVTVSS | low polyreactivity
QVQLVESGGGLVQAGGSLRLSCAASGGTFSKNAMGWYRQAPGKEREFVAAISSTGGDTTYYADSVKGRFTISRDNAKNTVYLQMNSLKPEDTAVYYCNADYIFWPWYDYWGQGTQVTVSS | low polyreactivity
QDQLVESGGGLVQAGGSLRLSCAASGFNFMSKGMGWYRQAHGKETEFVAVITSSTGSTSYADSVKGRFTISRDNAKNTVYLQMNSLKPEDTGVFYCAADAYYYYAGGHYYWGQGTQVTVSS | low polyreactivity
QVQLVESGGGLVQAGGSLRLSSAASGSTFGPYAMGWYRQAPGKERELVATITRNGGSTYYADSVKGRFTISRDYAKNTVYLQMNSLKPEETAFYSCNAEGRWSSFTQRMDYWGQGTQVNVSS | low polyreactivity
QVQLVESGGGLVQAGGSLRLSCAASGSIFARYALGWYRQAPGKERELVDAITRSGVSTYSADSVKGRFTISRDNAKNTVYLQMNSLKPEDTAVYYCNADYPIRSSPYGYYYWGQGTQVTVSS | high polyreactivity
QVQLVESGGGLVQAGGSLRLSCAASGFIFAGYHMAWYRQAPGKERELVAAISSSGANTYYADSVKGRFTISRDNAKNTVYLQMNSLKPEYSAVYYCAALYHWTYDYWGQGTQVTVSS | low polyreactivity
QVQLVESGGGLVQAGGSLRLSCASSGFTFTYNVMGWYRQAPGKERELVAAISWSGTSTSYADSVKGRFTISRDNAKNTVYLQMNSLNPEDTAVYYCAVQRKSSKRAFRYGYWGQGTQVTVSS | high polyreactivity
QVQLVESGGGLVQAGGSLRLSCAASGITFTVYAMGWYRQAPGKERELVAAITSTGSTNYAHSVKGRFTISRDNAKNTVYLLMNSLKPEDTAVYYCAADRQITVYAYDYWGQGTQVTVSS | low polyreactivity
QVQLVESGGGLVQAGGSLRLSCAASGITFVYYAMGWYRPAPGKERELVAAISWNGGSTYYADSVKGRFTISRDNAKNTVYLQMNSLKPEDSAVYYCNADSDPWYGHFSYYYYDMGYWGQGTQVTVSS | low polyreactivity
QVQLQESGGGLVQAGGSLRLSCAASGYISYLDFMGWYRQAPGKERELVAGITTGATTNYADSVKGRFTISRDNAKNIVYHQMNSLKPEDTAVYYCAVIGGDTRGHPYWGQGSQVTVSS | low polyreactivity
QDQLVHSGGGLVQSGGSLRISCAASGFTFYLYGMGRYRQAPGKERDLDAAIDSTGSTNYADSVKGRFTISRDNAKNTVYLQMNSLKPEDTAVYYCAADFYLYYFRSPYDYWGQGTQVTVSS | high polyreactivity
QVQLVESGGGLVQAGGSLRLSCPASGFTFSYYVMGWYRQSPGKERELVAAISSGGRTYYADSVKGRFTISRDNAKNTVYFQMNSLKPEDTAVYYCAAVRYSNEDDYWGQGTQVTVSS | high polyreactivity
QVQLVESGGGLVQAGGSLRLSCAASGRTFVRYAMGWYRQAPGKERELVAAISWSGGSTYYADSVKGRFTISRDNAKNTVYLQKNSLKPEDTAVYYCAAVDETPSSHEEDYWGQGTQVTVSS | high polyreactivity
QVQLVESGGGLVQAGGSLRLSCAASGNIFVRYAMGWYRQAPGKERELVAAISSSGGRTYYADSVKGRFTISRDNAKNTVYLQMNSLKPEDTAVYYCADAQGNAHRDYWGQGTQVTVSS | high polyreactivity
QVQLVESGGGLVQAGGSLRLSCAASGRIFGSYAMGSYRQAPGKERELVAAINWRGGSTFYADSVKGRFTISRDNAKNTVYLQMNSLKPEDTAVYYCARRGYRQSGDYWGQGTQVTVSS | low polyreactivity
QVQLVESGGGLVQAGGSLRLSCAASGIILDHYAMGWYRQAPGKERELVAAISSGTRTNYADSVKGRFTISRDNAKNTVYLQMNSLKPEDTAVYYCAATIYRRYRSKSSITSYWGQGTQVTVSS | high polyreactivity
QVQLVESGGGLVQAGGSLRLSCAASGRTFGKYAMGWYRQAPGKERELVATISRSGGSTYYADSVKGRFTISRDNAKNTVYLQMNSLKPEDTAVYYCNAVTSRYIWPPVLDRYHYWGQGTQVTVSS | high polyreactivity
QVQLVESGGGLVQAGGSLRLSCAASGRTFRKYAMGWYRQAPGKERELVAAINRGGTTKYADSVKGRFTISRDNAKNTVYLEMNSLKPEDTAVYYCAVDRQRAGYPKQYDSWGQGTQVTVSS | low polyreactivity
QVQLVESGGGLVQAGGSLRLSCAASGSIFRWNAMGWYIQAPGKERELVAAIDSGGSTYADSVKGRFTISRDNAKNTVYLQMNSLKPDDTAVYYCAAEIPDEWPYDYWGQGTQVTVSS | low polyreactivity
QVKLVESAGGLVQAGGSLRLSCSASAFIFGFNAMGWYRQEPGKERELVAAITWRGGRTSNADSVKGRFTISRDNAKNTVYLQMNSLKPEDTAVYYCAARRGTIVTRSRGYNYWGQGTQVTVSS | high polyreactivity
QVQLVDSGGGLVQAGGSLRLSCAASGFIFKGNAMGWSRQAPGKERELVAAISRSGGRTYYADSVKGRFTISRENAKNTVYLEMNSLKPEDTAVYYGATEGDSFSAYDYWVQGTQVTVSS | high polyreactivity
